Measurements: patent US20220380464A1 (Genmab, published 2022)
Changes are numbered by the printed parent chain. Names may count otherwise.

B1: UniTE-huCD3-H1L1-LT41K (antibody, V domains shown)
VH: EVKLVESGGGLVQPGGSLRLSCAASGFTFNTYAMNWVRQAPGKGLEWVARIRSKYNNYATYYADSVKDRFTISRDDSKSSLYLQMNNLKTEDTAMYYCVRHGNFGNSYVSWFAYWGQGTLVTVSS
VL: not shown
notes: also called UniTE-huCD3-H1L1-LT41K (WT); UniTE-huCD3-H1L1-T41K
B2: UniTE-huCD3-H1L1-N57E-LT41K (antibody, V domains shown)
VH: B1 VH with N57E
VL: not shown
notes: Monovalent UniBody-TE format
B3: UniTE-huCD3-H1L1-H101N-LT41K (antibody, V domains shown)
VH: B1 VH with H101N
VL: not shown
notes: Monovalent UniBody-TE format
B4: UniTE-huCD3-H1L1-H101G-LT41K (antibody, V domains shown)
VH: B1 VH with H101G
VL: not shown
notes: Monovalent UniBody-TE format
B5: UniTE-huCD3-H1L1-S110A-LT41K (antibody, V domains shown)
VH: B1 VH with S110A
VL: not shown
notes: Monovalent UniBody-TE format
B6: UniTE-huCD3-H1L1-T31M-LT41K (antibody, V domains shown)
VH: B1 VH with T31M
VL: not shown
notes: Monovalent UniBody-TE format
B7: UniTE-huCD3-H1L1-Y114V-LT41K (antibody, V domains shown)
VH: B1 VH with Y114V
VL: not shown
B8: UniTE-huCD3-H1L1-S110G-LT41K (antibody, V domains shown)
VH: B1 VH with S110G
VL: not shown
notes: Monovalent UniBody-TE format
B9: UniTE-huCD3-H1L1-Y114M-LT41K (antibody, V domains shown)
VH: B1 VH with Y114M
VL: not shown
notes: Monovalent UniBody-TE format
B10: UniTE-huCD3-H1L1-H101I-LT41K (antibody, V domains shown)
VH: B1 VH with H101I
VL: not shown
notes: Monovalent UniBody-TE format
B11: UniTE-huCD3-H1L1-T31P-LT41K (antibody, V domains shown)
VH: B1 VH with T31P
VL: not shown
notes: Monovalent UniBody-TE format
B12: UniTE-huCD3-H1L1-G105P-LT41K (antibody, V domains shown)
VH: B1 VH with G105P
VL: not shown
notes: Monovalent UniBody-TE format
B13: UniTE-huCD3-H1L1-H101F-LT41K (antibody, V domains shown)
VH: B1 VH with H101F
VL: not shown
notes: Monovalent UniBody-TE format
B14: UniTE-huCD3-H1L1-T31A-LT41K (antibody, V domains shown)
VH: B1 VH with T31A
VL: not shown
notes: Monovalent UniBody-TE format
B15: UniTE-huCD3-H1L1-Y32A-LT41K (antibody, V domains shown)
VH: B1 VH with Y32A
VL: not shown
notes: Monovalent UniBody-TE format
B16: UniTE-huCD3-H1L1-Y114R-LT41K (antibody, V domains shown)
VH: B1 VH with Y114R
VL: not shown
notes: Monovalent UniBody-TE format
B17: UniTE-huCD3-H1L1-H101K-LT41K (antibody, V domains shown)
VH: B1 VH with H101K
VL: not shown
notes: Monovalent UniBody-TE format
B18: IgG1-huCD3-S110A-FEAL (antibody, V domains shown)
VH: B1 VH with S110A
VL: not shown
B19: IgG1-huCD3-H101K-FEAL (antibody, V domains shown)
VH: B1 VH with H101K
VL: not shown
B20: IgG1-huCD3-Y114R-FEAL (antibody, V domains shown)
VH: B1 VH with Y114R
VL: not shown
B21: IgG1-huCD3-H101L-FEAL (antibody, V domains shown)
VH: B1 VH with H101L
VL: not shown
B22: IgG1-huCD3-T31M-FEAL (antibody, V domains shown)
VH: B1 VH with T31M
VL: not shown
B23: IgG1-huCD3-Y32A-FEAL (antibody, V domains shown)
VH: B1 VH with Y32A
VL: not shown
B24: IgG1-huCD3-N57E-FEAL (antibody, V domains shown)
VH: B1 VH with N57E
VL: not shown
B25: IgG1-huCD3-Y114V-FEAL (antibody, V domains shown)
VH: B1 VH with Y114V
VL: not shown
B26: IgG1-huCD3-G105P-FEAL (antibody, V domains shown)
VH: B1 VH with G105P
VL: not shown
B27: IgG1-huCD3-H101N-FEAL (antibody, V domains shown)
VH: B1 VH with H101N
VL: not shown
B28: IgG1-huCD3-Y114M-FEAL (antibody, V domains shown)
VH: B1 VH with Y114M
VL: not shown
B29: IgG1-huCD3-T31P-FEAL (antibody, V domains shown)
VH: B1 VH with T31P
VL: not shown
B30: IgG1-huCD3-S110G-FEAL (antibody, V domains shown)
VH: B1 VH with S110G
VL: not shown

The binders below were run against T1, CD3ε27-GSKa (human) (assay: BLI (Octet), summary table repeating Table 4).
T1 construct: also called Mature CD3ε27-GSKa
T1 sequence (chain, as listed by the source limits assumed): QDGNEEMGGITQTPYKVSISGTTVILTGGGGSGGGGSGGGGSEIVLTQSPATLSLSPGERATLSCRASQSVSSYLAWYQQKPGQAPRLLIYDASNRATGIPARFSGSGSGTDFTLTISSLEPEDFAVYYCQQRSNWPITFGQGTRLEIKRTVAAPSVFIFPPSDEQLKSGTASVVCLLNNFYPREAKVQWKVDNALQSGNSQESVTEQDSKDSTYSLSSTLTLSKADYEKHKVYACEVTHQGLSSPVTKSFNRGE
Method: (§1) Experiments were carried out while shaking at 1000 rpm and at 30° C.

Binder	Kd
B1	34 nM
B2	24 nM
B3	200 nM
B4	970 nM
B5	320 nM
B6	200 nM
B7	75 nM
B8	61 nM
B9	76 nM
B10	220 nM
B11	49 nM
B12	35 nM

The binders below were run against T2, human CD3 on human T cells (human, UniProt P07766 23-207) (assay: flow cytometry on human T cells, PE anti-human IgG, GM-PE).
T2 construct: Natural CD3/TCR complex on T cells isolated from human donor buffy coats; The other chains of the complex (CD3γ, CD3δ, CD3ζ, polyclonal TCR) are also present on the cells
T2 sequence (P07766 23-207 limits assumed): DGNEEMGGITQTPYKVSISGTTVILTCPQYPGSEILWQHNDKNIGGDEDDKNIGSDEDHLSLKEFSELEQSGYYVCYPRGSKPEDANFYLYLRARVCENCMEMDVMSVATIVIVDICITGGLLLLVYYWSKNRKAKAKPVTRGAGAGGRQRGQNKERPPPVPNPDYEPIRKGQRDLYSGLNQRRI
Method: (§2) T cells were Isolated from a buffy coat fraction of anti-coagulated human donor blood samples and resuspended in PBS/0.1% BSA/0.02% azide at 1.8×10E6 cells/mL. 50 μL of T cell suspension and 50 μL of the antibody dilutions were combined in a 96 well plate on ice, Incubated for 30 min at 4° C. and washed twice with PBS/0.1% BSA/0.02% azide. […] The cells were resuspended in 120 μL PBS/0.1% BSA/0.02% azide and PE geometric Mean Fluorescence Intensity was measured. Binding curves were analyzed using non-linear regression (sigmoidal dose-response with variable slope) using GraphPad Prism V5.04 software (GraphPad Software, San Diego, Calif., USA) and apparent affinity (KD) was derived from the concentration at half-maximal binding.

Binder	binding result
B13	no binding (tested: 5000 ng/mL)

The binders below were run against T2, human CD3 on human T cells (assay: flow cytometry on isolated human T cells, PE anti-human IgG detection).
Method: as §2

Binder	Tcell binding average at 5000ng/ml (Geometric MFI)
B1	13200 Geometric MFI
B2	8490 Geometric MFI
B3	848 Geometric MFI
B4	492 Geometric MFI
B5	1660 Geometric MFI
B14	10200 Geometric MFI
B6	1920 Geometric MFI
B7	6020 Geometric MFI
B8	949 Geometric MFI
B15	719 Geometric MFI
B9	3830 Geometric MFI
B16	6200 Geometric MFI
B17	1320 Geometric MFI
B11	4290 Geometric MFI
B12	10500 Geometric MFI
B13	641 Geometric MFI

Each binder was assayed against T1, CD3ε27-GSKa (assay: BLI (Octet HTX), UniTE antibody on anti-human Fc sensors, CD3ε27-GSKa in solution, 1:1 fit).
Method: as §1

Binder	Ka	Kd
B1	3e+07 M⁻¹	34 nM
B2	4.1e+07 M⁻¹	24 nM
B3	5.1e+06 M⁻¹	200 nM
B4	1e+06 M⁻¹	970 nM
B5	3.1e+06 M⁻¹	320 nM
B6	5.1e+06 M⁻¹	200 nM
B7	1.3e+07 M⁻¹	75 nM
B8	1.6e+07 M⁻¹	61 nM
B9	1.3e+07 M⁻¹	76 nM
B10	4.6e+06 M⁻¹	220 nM
B11	2e+07 M⁻¹	49 nM
B12	2.8e+07 M⁻¹	35 nM

Each binder was assayed against T1, CD3ε27-GSKa (assay: BLI (Octet HTX), IgG on anti-human Fc sensors, CD3ε27-GSKa 1000-1.4 nM in solution, 1:1 fit, average).
Method: as §1
Data was analyzed with ForteBio Data Analysis Software v8.1, using the 1:1 model and a global full fit with 1000 s association time and 100 s dissociation time. […] Data traces with a response <0.05 nm were excluded from analysis.

Binder	Kd	pKD
B18	72 nM	7.1
B19	120 nM	6.9
B20	46 nM	7.3
B21	107 nM	7
B22	99 nM	7
B23	105 nM	7
B24	91 nM	7
B25	29 nM	7.5
B26	5 nM	8.3
B27	45 nM	7.3
B28	42 nM	7.4
B29	42 nM	7.4
B30	153 nM	6.8
